Tests used:
human GLP-2 receptor = biological target: T1, human GLP-2 receptor (human, UniProt O95838 1-553); experiment: cell-based or functional assay
T1 sequence (looked up): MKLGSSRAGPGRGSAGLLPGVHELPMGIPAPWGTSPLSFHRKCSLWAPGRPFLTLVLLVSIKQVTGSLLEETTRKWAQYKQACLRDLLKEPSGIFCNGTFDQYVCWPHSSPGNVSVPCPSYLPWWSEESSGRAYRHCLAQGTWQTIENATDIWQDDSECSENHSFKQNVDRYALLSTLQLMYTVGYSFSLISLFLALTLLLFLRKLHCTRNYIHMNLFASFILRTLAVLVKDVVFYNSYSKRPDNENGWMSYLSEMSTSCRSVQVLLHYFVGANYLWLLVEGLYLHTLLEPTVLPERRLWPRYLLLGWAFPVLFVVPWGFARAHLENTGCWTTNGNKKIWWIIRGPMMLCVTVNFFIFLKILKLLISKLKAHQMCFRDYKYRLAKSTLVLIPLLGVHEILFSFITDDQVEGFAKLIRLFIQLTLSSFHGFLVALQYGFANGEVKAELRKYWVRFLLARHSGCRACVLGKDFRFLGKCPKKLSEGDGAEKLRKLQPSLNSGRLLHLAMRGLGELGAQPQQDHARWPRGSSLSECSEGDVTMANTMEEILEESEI

human GIP receptor = biological target: T2, human GIP receptor (human, UniProt P48546 22-466); experiment: cell-based or functional assay
T2 sequence (looked up): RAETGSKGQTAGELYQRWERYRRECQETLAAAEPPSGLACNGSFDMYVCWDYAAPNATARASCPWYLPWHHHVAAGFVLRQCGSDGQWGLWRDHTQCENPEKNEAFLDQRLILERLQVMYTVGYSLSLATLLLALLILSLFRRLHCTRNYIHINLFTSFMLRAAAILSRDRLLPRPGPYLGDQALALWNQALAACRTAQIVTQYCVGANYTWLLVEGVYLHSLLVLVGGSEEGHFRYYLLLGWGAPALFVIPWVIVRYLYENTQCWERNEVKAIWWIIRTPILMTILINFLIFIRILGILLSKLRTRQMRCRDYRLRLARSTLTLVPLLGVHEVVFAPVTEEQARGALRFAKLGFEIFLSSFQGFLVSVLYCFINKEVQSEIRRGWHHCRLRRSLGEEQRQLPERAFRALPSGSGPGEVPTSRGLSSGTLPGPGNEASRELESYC

B1: GIP-GLP-2 co-agonist 12 (peptide)
peptide: HVDGTFISDYSTILDNLAARDFINWLIQTKITD
Human GLP-2 receptor
  EC50 (cAMP): 25 nM
  Emax (10 µM), % of native GLP-2: 81%
  fold (EC50 vs native GLP-2): 21 fold
  logEC50 (cAMP): -7.6
Human GIP receptor
  EC50 (cAMP): 1.1 nM
  Emax (10 µM), % of native GIP: 96%
  fold (EC50 vs native GIP): 12 fold
  logEC50 (cAMP): -8.96

B2: GIP-GLP-2 co-agonist 13 (peptide)
peptide: HADGTFSSDYSTILDNLAARDFINWLIQTKITD
Human GLP-2 receptor
  EC50 (cAMP): 11 nM
  Emax (10 µM), % of native GLP-2: 99%
  fold (EC50 vs native GLP-2): 9.2 fold
  logEC50 (cAMP): -7.95
Human GIP receptor
  EC50 (cAMP): 12 nM
  Emax (10 µM), % of native GIP: 91%
  fold (EC50 vs native GIP): 135 fold
  logEC50 (cAMP): -7.92

B3: GIP-GLP-2 co-agonist 6 (peptide)
peptide: HAEGTFISDMNTILDNLAARDFINWLIQTKITD
Human GLP-2 receptor
  EC50 (cAMP): 60 nM
  Emax (10 µM), % of native GLP-2: 70%
  fold (EC50 vs native GLP-2): 50 fold
  logEC50 (cAMP): -7.22
Human GIP receptor
  EC50 (cAMP): 172 nM
  Emax (10 µM), % of native GIP: 83%
  fold (EC50 vs native GIP): 1930 fold
  logEC50 (cAMP): -6.77

B4: GIP-GLP-2 co-agonist 17 (peptide)
peptide: HADGTFISDYSTILDNLAARDFINWLIQTKIKD
Human GLP-2 receptor
  EC50 (cAMP): 25 nM
  Emax (10 µM), % of native GLP-2: 88%
  fold (EC50 vs native GLP-2): 21 fold
  logEC50 (cAMP): -7.61
Human GIP receptor
  EC50 (cAMP): 0.4 nM
  Emax (10 µM), % of native GIP: 95%
  fold (EC50 vs native GIP): 4.5 fold
  logEC50 (cAMP): -9.39

B5: GIP-GLP-2 co-agonist 3 (peptide)
peptide: HADGTFISDYSTILDNLAARDFINWLIQTKITD
Human GLP-2 receptor
  EC50 (cAMP): 21 nM
  Emax (10 µM), % of native GLP-2: 100%
  fold (EC50 vs native GLP-2): 18 fold
  logEC50 (cAMP): -7.67
Human GIP receptor
  EC50 (cAMP): 0.11 nM
  Emax (10 µM), % of native GIP: 100%
  fold (EC50 vs native GIP): 1.2 fold
  logEC50 (cAMP): -9.97

B6: GIP-GLP-2 co-agonist 14 (peptide)
peptide: HADGTFIDDYSTILDNLAARDFINWLIQTKITD
Human GLP-2 receptor
  EC50 (cAMP): 11 nM
  Emax (10 µM), % of native GLP-2: 90%
  fold (EC50 vs native GLP-2): 9.2 fold
  logEC50 (cAMP): -7.97
Human GIP receptor
  EC50 (cAMP): 2.4 nM
  Emax (10 µM), % of native GIP: 94%
  fold (EC50 vs native GIP): 27 fold
  logEC50 (cAMP): -8.63

B7: GIP-GLP-2 co-agonist 11 (peptide)
peptide: HGDGTFISDYSTILDNLAARDFINWLIQTKITD
Human GLP-2 receptor
  EC50 (cAMP): 24 nM
  Emax (10 µM), % of native GLP-2: 87%
  fold (EC50 vs native GLP-2): 20 fold
  logEC50 (cAMP): -7.62
Human GIP receptor
  EC50 (cAMP): 3.2 nM
  Emax (10 µM), % of native GIP: 95%
  fold (EC50 vs native GIP): 36 fold
  logEC50 (cAMP): -8.5

B8: GIP-GLP-2 co-agonist 4 (peptide)
peptide: HAEGSFISDYSTILDNLAARDFINWLIQTKITD
Human GLP-2 receptor
  EC50 (cAMP): 25 nM
  Emax (10 µM), % of native GLP-2: 90%
  fold (EC50 vs native GLP-2): 21 fold
  logEC50 (cAMP): -7.59
Human GIP receptor
  EC50 (cAMP): 38 nM
  Emax (10 µM), % of native GIP: 83%
  fold (EC50 vs native GIP): 427 fold
  logEC50 (cAMP): -7.42

B9: GIP-GLP-2 co-agonist 19 (peptide)
peptide: HADGTFISDYSTILDNLAARDFINWLIQTKGKK
Human GLP-2 receptor
  Emax (10 µM), % of native GLP-2: 91%
Human GIP receptor
  EC50 (cAMP): 0.25 nM
  Emax (10 µM), % of native GIP: 93%
  logEC50 (cAMP): -9.6

B10: GIP-GLP-2 co-agonist 16 (peptide)
peptide: HADGTFISDYSTILDNLAARDFINWLIQTKGTD
Human GLP-2 receptor
  EC50 (cAMP): 82 nM
  Emax (10 µM), % of native GLP-2: 74%
  fold (EC50 vs native GLP-2): 68 fold
  logEC50 (cAMP): -7.06
Human GIP receptor
  EC50 (cAMP): 0.6 nM
  Emax (10 µM), % of native GIP: 95%
  fold (EC50 vs native GIP): 6.7 fold
  logEC50 (cAMP): -9.22

B11: GIP-GLP-2 co-agonist 1 (peptide)
peptide: HAEGTFISDYSTILDNLAARDFINWLIQTKITD
Human GLP-2 receptor
  EC50 (cAMP): 98 nM
  Emax (1 µM), % of native GLP-2: 93%
  fold (EC50 vs native GLP-2): 82 fold
  logEC50 (cAMP): -7.01
Human GIP receptor
  EC50 (cAMP): 30 nM
  Emax (1 µM), % of native GIP: 100%
  fold (EC50 vs native GIP): 337 fold
  logEC50 (cAMP): -7.53

B12: GIP-GLP-2 co-agonist 18 (peptide)
peptide: HADGTFISDYSTILDNLAARDFINWLIQTKITK
Human GLP-2 receptor
  EC50 (cAMP): 5.3 nM
  Emax (10 µM), % of native GLP-2: 94%
  fold (EC50 vs native GLP-2): 4.4 fold
  logEC50 (cAMP): -8.28
Human GIP receptor
  EC50 (cAMP): 0.66 nM
  Emax (10 µM), % of native GIP: 89%
  fold (EC50 vs native GIP): 7.4 fold
  logEC50 (cAMP): -9.18

B13: GIP-GLP-2 co-agonist 15 (peptide)
peptide: HADGTFISEYSTILDNLAARDFINWLIQTKITD
Human GLP-2 receptor
  EC50 (cAMP): 6.7 nM
  Emax (10 µM), % of native GLP-2: 104%
  fold (EC50 vs native GLP-2): 5.6 fold
  logEC50 (cAMP): -8.18
Human GIP receptor
  EC50 (cAMP): 3.2 nM
  Emax (10 µM), % of native GIP: 92%
  fold (EC50 vs native GIP): 36 fold
  logEC50 (cAMP): -8.5

B14: GIP-GLP-2 co-agonist 2 (peptide)
peptide: HAEGTFISDYSTILDNLAARDFINWLIQTKITDNDWKHNITQ
Human GLP-2 receptor
  EC50 (cAMP): 145 nM
  Emax (1 µM), % of native GLP-2: 93%
  fold (EC50 vs native GLP-2): 121 fold
  logEC50 (cAMP): -6.84
Human GIP receptor
  EC50 (cAMP): 12 nM
  Emax (1 µM), % of native GIP: 100%
  fold (EC50 vs native GIP): 135 fold
  logEC50 (cAMP): -7.92

B15: GIP-GLP-2 co-agonist 9 (peptide)
peptide: HAEGTFISDYSTILDNLAARDFVNWLLAQKITD
Human GLP-2 receptor
  EC50 (cAMP): 123 nM
  Emax (10 µM), % of native GLP-2: 67%
  fold (EC50 vs native GLP-2): 103 fold
  logEC50 (cAMP): -6.91
Human GIP receptor
  EC50 (cAMP): 3.2 nM
  Emax (10 µM), % of native GIP: 100%
  fold (EC50 vs native GIP): 36 fold
  logEC50 (cAMP): -8.5

B16: GIP-GLP-2 co-agonist 10 (peptide)
peptide: HAEGTFISDYSTILDNLAARDFINWLIQTKGKK
Human GLP-2 receptor
  EC50 (cAMP): 22 nM
  Emax (10 µM), % of native GLP-2: 77%
  fold (EC50 vs native GLP-2): 18 fold
  logEC50 (cAMP): -7.66
Human GIP receptor
  EC50 (cAMP): 5.4 nM
  Emax (10 µM), % of native GIP: 100%
  fold (EC50 vs native GIP): 61 fold
  logEC50 (cAMP): -8.27

B17: GIP-GLP-2 co-agonist 8 (peptide)
peptide: HAEGTFISDYSTILDNIHQQDFINWLIQTKITD
Human GLP-2 receptor
  Emax (10 µM), % of native GLP-2: 22%
  logEC50 (cAMP): > -5
Human GIP receptor
  EC50 (cAMP): 5.9 nM
  Emax (10 µM), % of native GIP: 100%
  fold (EC50 vs native GIP): 66 fold
  logEC50 (cAMP): -8.23

B18: GIP-GLP-2 co-agonist 5 (peptide)
peptide: HAEGTFSDEYSTILDNLAARDFINWLIQTKITD
Human GLP-2 receptor
  EC50 (cAMP): 6.2 nM
  Emax (10 µM), % of native GLP-2: 91%
  fold (EC50 vs native GLP-2): 5.2 fold
  logEC50 (cAMP): -8.21
Human GIP receptor
  EC50 (cAMP): 456 nM
  Emax (10 µM), % of native GIP: 75%
  fold (EC50 vs native GIP): 5120 fold
  logEC50 (cAMP): -6.34

B19: GIP-GLP-2 co-agonist 7 (peptide)
peptide: HAEGTFISDYSIAMDKLAARDFINWLIQTKITD
Human GLP-2 receptor
  EC50 (cAMP): 351 nM
  Emax (10 µM), % of native GLP-2: 78%
  fold (EC50 vs native GLP-2): 293 fold
  logEC50 (cAMP): -6.45
Human GIP receptor
  EC50 (cAMP): 26 nM
  Emax (10 µM), % of native GIP: 92%
  fold (EC50 vs native GIP): 292 fold
  logEC50 (cAMP): -7.59

Source: US20200392198A1 (UNIVERSITY OF COPENHAGEN, published 2020)
